Measured values published in publication PMC10456876.

T1: TRF1 (human), P54274
T1 chain: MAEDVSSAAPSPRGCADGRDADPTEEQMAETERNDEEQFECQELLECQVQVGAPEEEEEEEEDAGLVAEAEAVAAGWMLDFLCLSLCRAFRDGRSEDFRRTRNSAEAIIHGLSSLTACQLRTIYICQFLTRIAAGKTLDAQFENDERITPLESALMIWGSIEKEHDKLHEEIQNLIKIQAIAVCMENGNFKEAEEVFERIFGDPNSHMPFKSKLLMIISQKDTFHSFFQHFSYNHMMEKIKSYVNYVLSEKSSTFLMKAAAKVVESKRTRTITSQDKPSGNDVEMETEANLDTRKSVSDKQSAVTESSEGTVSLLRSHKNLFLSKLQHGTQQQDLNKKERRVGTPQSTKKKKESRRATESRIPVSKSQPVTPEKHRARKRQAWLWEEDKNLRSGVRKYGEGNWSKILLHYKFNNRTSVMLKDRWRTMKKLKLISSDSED


What was measured:
[1] = molecular target: human telomeric nucleosome core particle (teloNCP), P68431;P62805;P04908;P06899; test: EMSA; settings: chain shown with the change, triplicate; for response: read off a plot; for EC50: titration 0, 23, 36, 55, 85, 130, 200 nM TRF1core against teloNCP
TRF1 (human), P54274 = molecular target: T1, TRF1 (human), P54274; test: native MS; purified TRF1core (co-expressed in Sf9, co-purified through MBP on TIN2) at 20 uM, dialysed into 750 mM ammonium acetate pH 8.0, 1 mM DTT; settings: remark: other sources report otherwise
[2] = point at 55 nM TRF1core, parent: est. 79

| response [1, 2] [% Bound] | EC50 [1] [nM] | stoichiometry N (TRF1 (human), P54274) | response ([1]; point at 200 nM TRF1core, parent: est. 100) [% Bound] | Binder |
| --- | --- | --- | --- | --- |
| 91 | 30.3 |  |  | wild-type MBP-tagged TRF1core (TRF1-TIN2-TPP1), P54274;Q9BSI4 S434D; S435D; S437D (protein) chain 1: MAEDVSSAAPSPRGCADGRDADPTEEQMAETERNDEEQFECQELLECQVQVGAPEEEEEEEEDAGLVAEAEAVAAGWMLDFLCLSLCRAFRDGRSEDFRRTRNSAEAIIHGLSSLTACQLRTIYICQFLTRIAAGKTLDAQFENDERITPLESALMIWGSIEKEHDKLHEEIQNLIKIQAIAVCMENGNFKEAEEVFERIFGDPNSHMPFKSKLLMIISQKDTFHSFFQHFSYNHMMEKIKSYVNYVLSEKSSTFLMKAAAKVVESKRTRTITSQDKPSGNDVEMETEANLDTRKSVSDKQSAVTESSEGTVSLLRSHKNLFLSKLQHGTQQQDLNKKERRVGTPQSTKKKKESRRATESRIPVSKSQPVTPEKHRARKRQAWLWEEDKNLRSGVRKYGEGNWSKILLHYKFNNRTSVMLKDRWRTMKKLKLIDDDDED chain 2: MATPLVAGPAALRFAAAASWQVVRGRCVEHFPRVLEFLRSLRAVAPGLVRYRHHERLCMGLKAKVVVELILQGRPWAQVLKALNHHFPESGPIVRDPKATKQDLRKILEAQETFYQQVKQLSEAPVDLASKLQELEQEYGEPFLAAMEKLLFEYLCQLEKALPTPQAQQLQDVLSWMQPGVSITSSLAWRQYGVDMGWLLPECSVTDSVNLAEPMEQNPPQQQRLALHNPLPKAKPGTHLPQGPSSRTHPEPLAGRHFNLAPLGRRRVQSQWASTRGGHKERPTVMLFPFRNLGSPTQVISKPESKEEHAIYTADLAMGTRAASTGKSKSPCQTLGGRALKENPVDLPATEQKENCLDCYMDPLRLSLLPPRARKPVCPPSLCSSVITIGDLVLDSDEEENGQGEGKESLENYQKTKFDTLIPTLCEYLPPSGHGAIPVSSCDCRDSSRPL chain 3: MAGSGRLVLRPWIRELILGSETPSSPRAGQLLEVLQDAEAAVAGPSHAPDTSDVGATLLVSDGTHSVRCLVTREALDTSDWEEKEFGFRGTEGRLLLLQDCGVHVQVAEGGAPAEFYLQVDRFSLLPTEQPRLRVPGCNQDLDVQKKLYDCLEEHLSESTSSNAGLSLSQLLDEMREDQEHQGALVCLAESCLTLEGPCTAPPVTHWAASRCKATGEAVYTVPSSMLCISENDQLILSSLGPCQRTQGPELPPPDPALQDLSLTLIASPPSSPSSSGTPALPGHMSSEESGTSISLLPALSLAAPDPGQRSSSQPSPAICSAPATLTPRSPHASRTPSSPLQSCTPSLSPRSHVPSPHQALVTRPQKPSLEFKEFVGLPCKNRPPFPRTGATRGAQEPCSVWEPPKRHRDGSAFQYEYEPPCTSLCARVQAVRLPPQLMAWALHFLMDAQPGSEPTPM |
|  |  | 2 |  | TRF1, P54274 1-439 (natural protein, here or on the partner: phosphoserine at 434, 435 and 437 (likely by endogenous insect cell kinases; S435 phosphorylated in 87.3% of the identified peptides); phosphoserine at 434, 435 and 437 (likely by endogenous insect cell kinases; S435 phosphorylated in 87.3% of the identified peptides)) MAEDVSSAAPSPRGCADGRDADPTEEQMAETERNDEEQFECQELLECQVQVGAPEEEEEEEEDAGLVAEAEAVAAGWMLDFLCLSLCRAFRDGRSEDFRRTRNSAEAIIHGLSSLTACQLRTIYICQFLTRIAAGKTLDAQFENDERITPLESALMIWGSIEKEHDKLHEEIQNLIKIQAIAVCMENGNFKEAEEVFERIFGDPNSHMPFKSKLLMIISQKDTFHSFFQHFSYNHMMEKIKSYVNYVLSEKSSTFLMKAAAKVVESKRTRTITSQDKPSGNDVEMETEANLDTRKSVSDKQSAVTESSEGTVSLLRSHKNLFLSKLQHGTQQQDLNKKERRVGTPQSTKKKKESRRATESRIPVSKSQPVTPEKHRARKRQAWLWEEDKNLRSGVRKYGEGNWSKILLHYKFNNRTSVMLKDRWRTMKKLKLISSDSED |
| 68 | 42.4 |  | 97 | wild-type MBP-tagged TRF1core (TRF1-TIN2-TPP1), P54274;Q9BSI4 L384A; W385A; K389A (protein) chain 1: AEDVSSAAPSPRGCADGRDADPTEEQMAETERNDEEQFECQELLECQVQVGAPEEEEEEEEDAGLVAEAEAVAAGWMLDFLCLSLCRAFRDGRSEDFRRTRNSAEAIIHGLSSLTACQLRTIYICQFLTRIAAGKTLDAQFENDERITPLESALMIWGSIEKEHDKLHEEIQNLIKIQAIAVCMENGNFKEAEEVFERIFGDPNSHMPFKSKLLMIISQKDTFHSFFQHFSYNHMMEKIKSYVNYVLSEKSSTFLMKAAAKVVESKRTRTITSQDKPSGNDVEMETEANLDTRKSVSDKQSAVTESSEGTVSLLRSHKNLFLSKLQHGTQQQDLNKKERRVGTPQSTKKKKESRRATESRIPVSKSQPVTPEKHRARKRQAWAAEEDANLRSGVRKYGEGNWSKILLHYKFNNRTSVMLKDRWRTMKKLKLISSDSED chain 2: MATPLVAGPAALRFAAAASWQVVRGRCVEHFPRVLEFLRSLRAVAPGLVRYRHHERLCMGLKAKVVVELILQGRPWAQVLKALNHHFPESGPIVRDPKATKQDLRKILEAQETFYQQVKQLSEAPVDLASKLQELEQEYGEPFLAAMEKLLFEYLCQLEKALPTPQAQQLQDVLSWMQPGVSITSSLAWRQYGVDMGWLLPECSVTDSVNLAEPMEQNPPQQQRLALHNPLPKAKPGTHLPQGPSSRTHPEPLAGRHFNLAPLGRRRVQSQWASTRGGHKERPTVMLFPFRNLGSPTQVISKPESKEEHAIYTADLAMGTRAASTGKSKSPCQTLGGRALKENPVDLPATEQKENCLDCYMDPLRLSLLPPRARKPVCPPSLCSSVITIGDLVLDSDEEENGQGEGKESLENYQKTKFDTLIPTLCEYLPPSGHGAIPVSSCDCRDSSRPL chain 3: MAGSGRLVLRPWIRELILGSETPSSPRAGQLLEVLQDAEAAVAGPSHAPDTSDVGATLLVSDGTHSVRCLVTREALDTSDWEEKEFGFRGTEGRLLLLQDCGVHVQVAEGGAPAEFYLQVDRFSLLPTEQPRLRVPGCNQDLDVQKKLYDCLEEHLSESTSSNAGLSLSQLLDEMREDQEHQGALVCLAESCLTLEGPCTAPPVTHWAASRCKATGEAVYTVPSSMLCISENDQLILSSLGPCQRTQGPELPPPDPALQDLSLTLIASPPSSPSSSGTPALPGHMSSEESGTSISLLPALSLAAPDPGQRSSSQPSPAICSAPATLTPRSPHASRTPSSPLQSCTPSLSPRSHVPSPHQALVTRPQKPSLEFKEFVGLPCKNRPPFPRTGATRGAQEPCSVWEPPKRHRDGSAFQYEYEPPCTSLCARVQAVRLPPQLMAWALHFLMDAQPGSEPTPM |
